Target: ShAb01 (nurse shark (Ginglymostoma cirratum))
Test: BLI
Details: both partners purified

B1: SARS-CoV-1 RBD (domain or fragment)
chain: not shown
Kd: 198 nM
